Experiments:
RPMI8226-luc cells = test: BCMAxCD3 mediated cell killing with human T cells, with or without GSI (luciferase viability); format: cell-based; details: with or without 1 μM GSI, 60 hours
Method: (§1) CD3^+ T cells from PBMCs (Stem Cell Technologies) were negatively selected using EasySep Human T cell enrichment kit (Stem Cell Technologies). Multiple myeloma cells expressing luciferase (MM.1S-luc, OPM2-luc, H929-luc, Molp8-luc, RPMI8226-luc) were treated with 1 μM GSI […]. After 24 hours, cells were seeded with 50,000 CD3^+ pan T cells in a clear 96-well V-bottom plate. Cells were further treated with a range of BCMAxCD3 bispecific antibody concentrations with or without 1 μM GSI. 60 hours after treatment, luciferase activity in treated cells was analyzed using NeoLite reagent kit (Perkin Elmer) and acquired on VictorX multimode plate reader (Perkin Elmer). Cell viability was calculated by dividing luciferase activity of treated cells over luciferase activity of untreated control (no BCMAxCD3 bispecific antibody added).

MM.1S-luc cells = test: as above; format: cell-based; details: with or without 1 μM GSI, 60 hours
Method: as §1

Molp8-luc cells = test: as above; format: cell-based; details: with or without 1 μM GSI, 60 hours
Method: as §1

H929-luc cells = test: as above; format: cell-based; details: with or without 1 μM GSI, 60 hours
Method: as §1

OPM2-luc cells = test: as above; format: cell-based; details: with or without 1 μM GSI, 60 hours
Method: as §1

[1] = system: MM.1S-PD-L1 multiple myeloma cells; test: Subcutaneous MM.1S-PD-L1 multiple myeloma mouse model, tumor volume; format: in vivo
Method: MM.1S multiple myeloma cells were engineered to express PD-L1 and are referred to as MM.1S-PD-L1. Pre-activated and expanded T cells (20×10^6) were administered on Day 19 after MM.1S-PDL1 tumor cell inoculation subcutaneously (SC). BCMAxCD3 bispecific (0.3 or 1 mg/kg) or negative bispecific (1 mg/kg) was administered IV on Day 21 and dosed Q7Dx3. Anti-PD-1 mAb was administered at 5 mg/kg intraperitoneally (IP) twice a week starting on Day 21. Tumor measurements were recorded 2 to 3 times a week using digital calipers. N (at study start) is 5-12 animals per group.

How did the RPMI8226 cell viability (RPMI8226-luc cells; BCMA × CD3 0.00064 nM) turn out when “PF-06863135: heterodimeric humanized full-length bispecific antibody, one BCMA binding arm and one CD3 binding arm, modified human IgG2Δa Fc” was run?
The RPMI8226 cell viability was 113.2 ± 10.6 % control.

What about the RPMI8226 cell viability (RPMI8226-luc cells; BCMA × CD3 0.0032 nM) of the same substance?
The RPMI8226 cell viability was 130.5 ± 19.5 % control.

And the RPMI8226 cell viability (RPMI8226-luc cells; BCMA × CD3 0.016 nM)?
The RPMI8226 cell viability was 113.4 ± 1.3 % control.

What about the RPMI8226 cell viability (RPMI8226-luc cells; BCMA × CD3 0.08 nM) of the same substance?
Its RPMI8226 cell viability is 54.2 ± 16.9 % control.

And the RPMI8226 cell viability (RPMI8226-luc cells; BCMA × CD3 0.4 nM)?
Its RPMI8226 cell viability is 28.7 ± 13.6 % control.

And the RPMI8226 cell viability (RPMI8226-luc cells; BCMA × CD3 2 nM)?
The RPMI8226 cell viability was 25.7 ± 5.5 % control.

What about the RPMI8226 cell viability (RPMI8226-luc cells; BCMA × CD3 10 nM) of the same substance?
Its RPMI8226 cell viability is 19.9 ± 1.1 % control.

And the RPMI8226 cell viability (RPMI8226-luc cells; BCMA × CD3 50 nM)?
The RPMI8226 cell viability was 19.4 ± 5^ % control.

And the MM.1S cell viability (MM.1S-luc cells; BCMAxCD3 0.00001 nM)?
Its MM.1S cell viability is 80.6 ± 3.9 % control.

What about the MM.1S cell viability (MM.1S-luc cells; BCMAxCD3 0.00005 nM) of the same substance?
Its MM.1S cell viability is 79.8 ± 2.9 % control.

And the MM.1S cell viability (MM.1S-luc cells; BCMAxCD3 0.00026 nM)?
Its MM.1S cell viability is 78 ± 0.9 % control.

And the MM.1S cell viability (MM.1S-luc cells; BCMAxCD3 0.00128 nM)?
Its MM.1S cell viability is 87.7 ± 4.4 % control.

And the MM.1S cell viability (MM.1S-luc cells; BCMAxCD3 0.0064 nM)?
The MM.1S cell viability was 108 ± 4.5 % control.

And the MM.1S cell viability (MM.1S-luc cells; BCMAxCD3 0.032 nM)?
The MM.1S cell viability was 2.5 ± 0.3 % control.

What about the MM.1S cell viability (MM.1S-luc cells; BCMAxCD3 0.16 nM) of the same substance?
The MM.1S cell viability was 1.7 ± 0.8 % control.

And the MM.1S cell viability (MM.1S-luc cells; BCMAxCD3 0.8 nM)?
Its MM.1S cell viability is 2.4 ± 0.5 % control.

What about the MM.1S cell viability (MM.1S-luc cells; BCMAxCD3 4 nM) of the same substance?
The MM.1S cell viability was 1.3 ± 0.8 % control.

What about the Molp8 cell viability (Molp8-luc cells; BCMAxCD3 0.00001 nM) of the same substance?
The Molp8 cell viability was 64 ± 11.6 % control.

And the Molp8 cell viability (Molp8-luc cells; BCMAxCD3 0.00005 nM)?
The Molp8 cell viability was 59.1 ± 4.6 % control.

And the Molp8 cell viability (Molp8-luc cells; BCMAxCD3 0.00026 nM)?
The Molp8 cell viability was 58.5 ± 0.6 % control.

What about the Molp8 cell viability (Molp8-luc cells; BCMAxCD3 0.00128 nM) of the same substance?
Its Molp8 cell viability is 66.7 ± 0.3 % control.

And the Molp8 cell viability (Molp8-luc cells; BCMAxCD3 0.0064 nM)?
The Molp8 cell viability was 55.2 ± 1.3 % control.

And the Molp8 cell viability (Molp8-luc cells; BCMAxCD3 0.032 nM)?
The Molp8 cell viability was 66.1 ± 4.9 % control.

What about the Molp8 cell viability (Molp8-luc cells; BCMAxCD3 0.16 nM) of the same substance?
Its Molp8 cell viability is 8 ± 2 % control.

What about the Molp8 cell viability (Molp8-luc cells; BCMAxCD3 0.8 nM) of the same substance?
Its Molp8 cell viability is 6.1 ± 0.7 % control.

What about the Molp8 cell viability (Molp8-luc cells; BCMAxCD3 4 nM) of the same substance?
Its Molp8 cell viability is 5.2 ± 0.3 % control.

What about the H929 cell viability (H929-luc cells; BCMAxCD3 0.00001 nM) of the same substance?
Its H929 cell viability is 80.2 ± 0.3 % control.

And the H929 cell viability (H929-luc cells; BCMAxCD3 0.00005 nM)?
The H929 cell viability was 81.1 ± 0.2 % control.

What about the H929 cell viability (H929-luc cells; BCMAxCD3 0.00026 nM) of the same substance?
The H929 cell viability was 79 ± 0.8 % control.

And the H929 cell viability (H929-luc cells; BCMAxCD3 0.00128 nM)?
Its H929 cell viability is 77.8 ± 3.3 % control.

What about the H929 cell viability (H929-luc cells; BCMAxCD3 0.0064 nM) of the same substance?
The H929 cell viability was 81.2 ± 3 % control.

And the H929 cell viability (H929-luc cells; BCMAxCD3 0.032 nM)?
The H929 cell viability was 98.6 ± 1.2 % control.

What about the H929 cell viability (H929-luc cells; BCMAxCD3 0.16 nM) of the same substance?
The H929 cell viability was 23.2 ± 7.2 % control.

What about the H929 cell viability (H929-luc cells; BCMAxCD3 0.8 nM) of the same substance?
Its H929 cell viability is 11.3 ± 1.5 % control.

What about the H929 cell viability (H929-luc cells; BCMAxCD3 4 nM) of the same substance?
Its H929 cell viability is 8.6 ± 3 % control.

What about the OPM2 cell viability (OPM2-luc cells; BCMA × CD3 0.00064 nM) of the same substance?
Its OPM2 cell viability is 83.8 ± 3.4 % control.

And the OPM2 cell viability (OPM2-luc cells; BCMA × CD3 0.0032 nM)?
Its OPM2 cell viability is 84.3 ± 3.1 % control.

And the OPM2 cell viability (OPM2-luc cells; BCMA × CD3 0.016 nM)?
The OPM2 cell viability was 68.4 ± 2.4 % control.

What about the OPM2 cell viability (OPM2-luc cells; BCMA × CD3 0.08 nM) of the same substance?
Its OPM2 cell viability is 43.6 ± 6.4 % control.

What about the OPM2 cell viability (OPM2-luc cells; BCMA × CD3 0.4 nM) of the same substance?
The OPM2 cell viability was 3.1 ± 0.8 % control.

And the OPM2 cell viability (OPM2-luc cells; BCMA × CD3 2 nM)?
Its OPM2 cell viability is 2.8 ± 0.8 % control.

And the OPM2 cell viability (OPM2-luc cells; BCMA × CD3 10 nM)?
Its OPM2 cell viability is 2 ± 0.2 % control.

What about the OPM2 cell viability (OPM2-luc cells; BCMA × CD3 50 nM) of the same substance?
The OPM2 cell viability was 3.3 ± 0.3 % control.

What about the “Tumor Volume ± SEM” value ([1]; day 14 post inoculation (before dosing), bispecific 0.3 mg/kg IV Q7Dx3 from Day 21, anti-PD-1 5 mg/kg IP twice a week) of the same substance?
Its value is 34.4 ± 9.5 mm^3.

What about the “Tumor Volume ± SEM” value ([1]; day 14 post inoculation (before dosing), bispecific 1 mg/kg IV Q7Dx3 from Day 21, anti-PD-1 5 mg/kg IP twice a week) of the same substance?
The value was 26.4 ± 7.5 mm^3.

And the “Tumor Volume ± SEM” value ([1]; day 18 post inoculation (before dosing), bispecific 0.3 mg/kg IV Q7Dx3 from Day 21, anti-PD-1 5 mg/kg IP twice a week)?
The value was 91.6 ± 18 mm^3.

And the “Tumor Volume ± SEM” value ([1]; day 18 post inoculation (before dosing), bispecific 1 mg/kg IV Q7Dx3 from Day 21, anti-PD-1 5 mg/kg IP twice a week)?
The value was 92 ± 17.1 mm^3.

And the “Tumor Volume ± SEM” value ([1]; day 20 post inoculation (before dosing), bispecific 0.3 mg/kg IV Q7Dx3 from Day 21, anti-PD-1 5 mg/kg IP twice a week)?
The value was 122.5 ± 20.7 mm^3.

What about the “Tumor Volume ± SEM” value ([1]; day 20 post inoculation (before dosing), bispecific 1 mg/kg IV Q7Dx3 from Day 21, anti-PD-1 5 mg/kg IP twice a week) of the same substance?
Its value is 130.7 ± 24.6 mm^3.

What about the “Tumor Volume ± SEM” value ([1]; day 25 post inoculation, bispecific 0.3 mg/kg IV Q7Dx3 from Day 21, anti-PD-1 5 mg/kg IP twice a week) of the same substance?
The value was 403 ± 59 mm^3.

And the “Tumor Volume ± SEM” value ([1]; day 25 post inoculation, bispecific 1 mg/kg IV Q7Dx3 from Day 21, anti-PD-1 5 mg/kg IP twice a week)?
The value was 601.1 ± 70 mm^3.

What about the “Tumor Volume ± SEM” value ([1]; day 28 post inoculation, bispecific 0.3 mg/kg IV Q7Dx3 from Day 21, anti-PD-1 5 mg/kg IP twice a week) of the same substance?
The value was 403.3 ± 67.6 mm^3.

And the “Tumor Volume ± SEM” value ([1]; day 28 post inoculation, bispecific 1 mg/kg IV Q7Dx3 from Day 21, anti-PD-1 5 mg/kg IP twice a week)?
Its value is 482.9 ± 32.6 mm^3.

What about the “Tumor Volume ± SEM” value ([1]; day 32 post inoculation, bispecific 0.3 mg/kg IV Q7Dx3 from Day 21, anti-PD-1 5 mg/kg IP twice a week) of the same substance?
The value was 603.6 ± 151.6 mm^3.

And the “Tumor Volume ± SEM” value ([1]; day 32 post inoculation, bispecific 1 mg/kg IV Q7Dx3 from Day 21, anti-PD-1 5 mg/kg IP twice a week)?
Its value is 410.5 ± 82.7 mm^3.

What about the “Tumor Volume ± SEM” value ([1]; day 35 post inoculation, bispecific 0.3 mg/kg IV Q7Dx3 from Day 21, anti-PD-1 5 mg/kg IP twice a week) of the same substance?
Its value is 835.1 ± 77.2 mm^3.

And the “Tumor Volume ± SEM” value ([1]; day 35 post inoculation, bispecific 1 mg/kg IV Q7Dx3 from Day 21, anti-PD-1 5 mg/kg IP twice a week)?
Its value is 627.9 ± 111.8 mm^3.

What about the “Tumor Volume ± SEM” value ([1]; day 39 post inoculation, bispecific 0.3 mg/kg IV Q7Dx3 from Day 21, anti-PD-1 5 mg/kg IP twice a week) of the same substance?
Its value is 1569.3 ± 151.8 mm^3.

What about the “Tumor Volume ± SEM” value ([1]; day 39 post inoculation, bispecific 1 mg/kg IV Q7Dx3 from Day 21, anti-PD-1 5 mg/kg IP twice a week) of the same substance?
Its value is 1436.8 ± 276.4 mm^3.
